According to the nanobody polyreactivity screen of Harvey et al. (2022):

Test: yeast display, Sf9 membrane polyspecificity reagent, FACS + sequencing; frameworks hold sequencing errors
Outline: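 Genes from sorted yeast were amplified by colony PCR, read by MiSeq 2 × 250 sequencing and filtered on CDR length. These cells carried a synthetic nanobody library in Saccharomyces cerevisiae BJ5465 and were sorted by FACS into low and high (top ~1%) gates on anti-HA and streptavidin fluorescence. Polyreactivity is labelled according to the gate of origin.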

Sequence | polyreactivity (PSR sort gate)
QVQLVESGGGLVQAGGSLRLSCAASGRTFGWNAMGWYRQAPGKERELVAAISLRGTSTYYADSVKGRFTISRDNAKNTVYLQMNSLKPEDTAVYYCAARGRNGVNYWGQGTQVTVSS | high polyreactivity
QVKLVESGGVLVQAGGSLRLSCADSGRTFYPYAMGWYRQGPGKDRELVAAISRSGGSTYADSVKGRFTISRDNAKYTVYLQMNSLKPEDTAVYYCATRRKTYLSFNYDYWGQGTQVTVSS | low polyreactivity
QVQIVESGGGLVQAGGSLRLSCAASGRTFKGYAMAFYRQAPGKERELVAGISRGAGRTYYADSVKGRFTISRDNAKNTVYLQMNSLKPEDTAVYYCAAVPSYNSTSPFYYWGQGTQVTVSS | high polyreactivity
QVQLVESGGGLVQAGGSLRLSCAASGRIFVTNAMGWYRQAPGKERELVAAITRGGSTNYADSVKGRFTISRDNAKNTVYLQMNSLKPEDTAVYYCAAKRRYYGPWSRIGYDYWGHGTQVTVSS | low polyreactivity
QVQLVESGGGLVQAGGSLRLSCAASGSIFGRNDMGWYRQAPGKERELVAAISGDTTTNYADSVKGRFTISRDNAKNTVYLQMNSLKPEDTAVYYCAAKYGYRRGTVRGYTRVYYWGQGTQVTVSS | high polyreactivity
QVQLVESGGGLVQAGGSLRLSCAASGFTFSYYAMGWYRQAPGKERELVAAIRGGGSTYADSVKGRFTISRDNAKNTVYLQMHSLKPEDTAVYYCAARYSGSPYPTRRYDYWGQGTQVTVSS | high polyreactivity
QVQLVESGGGLVQAGGSLRLSCAASGRIFVPNAMGWYRQAPGKERELVAAISSSGGSTYYADSVKGRFTISRDNAKNTVYLQMNSLKPEDTAVYDCNKVQSTANDYWGQGTQVTVSS | low polyreactivity
QVQLVESGGGLVQAGGSLRLSCAASGRIFRYYAMGWYRQAPGKERELVAAISGSGGSTYYADSVKGRFTISRDNAKNTVYLQMNSLKPEDTAVYYCNARYRIPSGEGDHWGQGTQVTVSS | low polyreactivity
QVQLVESGGGLVQAGGSLRLSCAASGSIFNPYAMGWYRQAPGKERELVAAISYTGGRTYYADSVKGRFTISRDNAKNTVYLQMNSLKPEDTAVYYCAAGHYVYWYRYQLGRYNYWGQGTQVTVSS | high polyreactivity
QVQLVESWGGLVQAGGSLRLSCAASGRIFRNYVMGWYRQAPGKERELVAAISRSGGSTYYADSVKGRFTISRDNAKNTVYLQMNSLKPEDTAVYYCNADYATRRVSLNYGYWGQGTQVTVSS | high polyreactivity
QVQLVESGGVLVQAGGSLRLSCAASGRIFPYYAMGWYRQAPGKEREMVAAINSGGSTYYADSVKGRFTISRDNAKNTVYLQMNSLKPEDTAVYYCNADVLFEDGFFWDDYWGQGTQVTVSS | low polyreactivity
QVQLVESGGGLVQAGGSLRLSCAASGSTFAYYAMGWYRQAPGKERELVAAINYRATRTYYADSVKGRFTISRDNAKNTVYLQMNSLKPEDTAVYYCAAVSPNTAYDYWGQGTQVTVSS | high polyreactivity
QVQLVEAVGGLVQAGGSLRLSCAASGNTYYGNAMGWYRQAPGKEREFVAAITIRTGSTYYADSVKGRFTISRDNAKNTVYLQMNSLKPDDTAVYYCAADAYWRWNWYDYWGQGTQVTVSS | high polyreactivity
QVQLVESGGGLVQAGGSLRLSCAASGFTFRNYAMGWYRQAPGKERELVAAISKSGGSTYYADSVKGRFTISRDNAKNTVYFQMNSLKPEDSAVYYCATVYLYVYGFEYYYWGQGTQVTLSS | high polyreactivity
QVQLGESGGGLVQAGGSLRLSCAASGSIFYGYAMGWYRHAPGKERELVAAITRDGSTNYADSVKGRFTISLDNAKNTVYLQMNSLKPEDTAVYYCAADTRSRRLSLVRRDYWGQGTQVTVSS | high polyreactivity
QVQLVESGGGLVQAGGSLRLSCAASGNTFWKYAMGWYRQAPGKERELVAAITRGGARTYYADSVKGRFTISRDNAKYSVYLQINSLNPEDTAVYYCAAQYWTEYGSWGQGTEVTVSS | low polyreactivity
QVQLVESGGGLVQAGGSLRLSCAASGFIFYDYDMGWYRPAPGKERELVAAITYSGGSTYYADSVKGRFTISRDNAKNTVYLQMNSLKPEDTAVYYCAAVKSRYAEAVDYYYWGQGTQVTVSS | low polyreactivity
QVQLVESGGRLVQAGGSHRIRCAASGFIFWYYAMGWYRPAPGKERELVAGITTGGSTNYADSVKGRFTISRDNAKNTVYLEMNSLKPEDTAVYYCNADPTYQVGYDYWGQGTQVTVSS | low polyreactivity
QVQLVESGGGLVQAGGSLRLSCAASGRTSGFNTMGWYRQAPGKERELVAAISFSGGSTYYADSVKGRFTISRDYSKNTVYLQMNSLKPEDTAVYYCTALYRYLYRSGDYWGQGTQVTVSS | low polyreactivity
QVQLVESGGGLVQAGGSLRLSCAASGRTFVYNAKGWYRQAPGKEREVVAGITGSGDSTYYADSVKGRFTISRDNAKNTVYLQMNSLKPEDTAVYYCNQLVEEDYWGQGTQVTVSS | low polyreactivity
QVQLVESGGGLVQAGGSLRLSCAASGRTFQGYAMGWYRQAPGKERELVAAISRSGGRTYYADSVKGRFTISRDNAKNTVYLQMNSLKPEDTAVYYCAARRRWSQTPFDYWGQGTQVTVSS | high polyreactivity
QVQLVESGGGLVQAGGSIRLSCAASGFIFGGYAMGWYRQAPGKERELVAAITRSGGSTYYADSVKGRFTISRDNAKTTVYFQMNSLKPEDTAVYYCAAVPYRKHSYPFRLNYWGQGTQVTVSS | high polyreactivity

Sequence | polyreactivity (PSR sort gate)
QDQLVESGAGLVQAGGSLRLSCAASGSTFGIYAMGWSRQAPGKEREFVAAISRSGSSTYYADSVKGRFTISRDNAKNTVYLQMNSLKPEDTAVYYCAAVVRYSQAGYYYWGQGTHVTVSS | high polyreactivity
QVQLVESGGCLVQAGGSLRLSCAASGSTFLSYAMGWYRQAPGKERELVAAISYSAGSTYYADSVKGRFTISRDNAKNTVYLQMNSLKPEDTAVYYCAAYDYSERRYDYWGQGTQVTVSS | low polyreactivity
QVQLVESGGGLVQAGGSLRLSCAASGRIFVWYAMGWYRQATGKERELVAAITRGGSTNYADSVKGRFTISRDNAKNTVYLQMNSLKPEDTAVYYCAARSPYRTRNDYWGQGTQVTVSS | low polyreactivity
QVQHVESVGGLVQAGGSLRLICAASGGTIDTYAIGWYRQAPGKERELVAGIDWSGGSTYYADSVKGRFTISRDNSKNTVYLQMNSLKPEDTAVYYCAADYYYPSQMDYWGQGTQVTVSS | low polyreactivity
QVQLVESGGGLVQAGGSLRLSCAASGSIIGRYTMGWYRQAPGKERELVAAINRSGGSTSYADSVKGRFTISRDNAKNTVYLQMNSLKPEDTAVYYCNRARSVPQFYGTYGFGYDYWGQGTQVTVSS | low polyreactivity
QVQLVESGGGLVQAGGSLRLSCAASGLTFSYYAMGWYRQAPGKERELVAGISSSGGTTYYADSVKGRFTISRDNAKNTVYLQMNSLKPEDTAVYYCATRRHYGSFWYDYWGQGTQVTVSS | high polyreactivity
QVQLVESGGGLVQAGGSLRISCAASGSIFPRYAMGWYRQAPGKERELVAAISWRGGRTYYADSVKGRFTISRDNAKNTVYLQMNSLKPEDTAVYYCAARWRQRKSVRYGQQGYDYWGQGTQVTVSS | high polyreactivity
QVQLVESGGGLVQAGGRLRFSCAASGSTIRRKAMGWSRQAPGKERELVARISYRGGSTYYADSVKGRFTSSRDNAKNTVYLQMNSLKPEATAVYYCAAPVYGVPEYDYWGQGPQVTVSS | low polyreactivity
QVQLVESGGGLVQAGGSLRLSCAASGRSLGWYAMGWYRKAPGKERELVAAISSGVRTNYADSVKGRFTISRDNAKNTVYLQMNSLKPEDTAVYYCAAATYNQDYSYDYWGQGTQVTVSS | low polyreactivity
QVQLVESGGGLVQAGGSLRLSCAASGSIFDSYAMGWYRQAPGKERELVAAISRIGGTTYYADSVKGRFTISRDNAKNTVYLQMNTLKPEDTAVYYCAAGPLLPRYSQYGYWGLGTQVTVSS | low polyreactivity
QVQLVESGGGLVQAGGSLRLSCAASGSTIGFYAMGWYRQAPGKERELVAVISSGDSTYYADSVKGRFTISRDNAKNTVYLQMNSLKPEDTAVYYCAKDALVIDGGGGYDYWGQGTQVTVSS | low polyreactivity
QVQLVESGAGLVQAGGSLRLSFAASGRTFVYNAMAWYRQAPGKERELVAAIDGGGDRTYYADSVKGRFTISRDNAKNTVYLQMNSLKPEDTAVYYCARDPGDTYYYSYPEGDYWGQGTLVTVSS | low polyreactivity
QVQLVESGGGLVQAGGSLRLSCAASGSIFRTYAMGWYRQAPGKERELVATITFGGVSTYYADSVKGRFTISRDNAKITVYLQMNSLKPEDTAVYYCAADVYTRFWRVYRFDYWGQGTQVTVSS | low polyreactivity
QVQLVESGGGLVQAGGSLRFSCAASGRIFGDYAMGWYRLAPGKERELVAAISWSDGSTYYADSVKGRFTISRDNAKNTVYLQMNSLKPEDTAVYYCAASYWDTEPGYREYDYWGQGTQVTVSS | low polyreactivity
QVQLVESGGGLVQAGGILRLSCAASGRIFSYYAKGWYRQAPGKERELVAAITRGGSTNYADSVKGRFTISRDNAKNSVYLQMNSLKPEDTAVYYFAVRGGYTGPTYNYWGQGTQVTVSS | high polyreactivity
QVQLVESGGGLVQAGGSLRLSCASSGRTFYIYAIGWYRQAAGKERELVASISRGGSTTYADSVKGRFTISRDNAKNTVYLQMNSLKPEDTAVYYCNARAYYDMNQWGQGTQVTVSS | low polyreactivity
QVQHVESRGGLVQAGGSLRLSCAASGIILSPYAMGWYRQAPGKERELVAAISRSGGSTYYADSVKGRFTISRDNAKNTVYLQMNSLKPEDTAVYYCAARYHVYSNYYKYDYCGQGTQVTVSS | high polyreactivity
QVQLVESGGGLVQAGGSLRLSCAASGATFYVYAMGWYRQAPGKERELVAAIRYRGGTTHYADSVKGRFTISRDNAKNTVYVQMNSLKPEDTAVYYCAADGYVYRSGRRYDYWGQGTQVTVSS | high polyreactivity
QVHLVESGRGLVQAGGSLRLSCAASGIIFYDYSMGWYRQAPGKERELVAAISWDGVSSYYADSVKGRFTISRDNAKNTVYLQMNSLKPEATAVYYCAARAVTDDDYEFDDWGQGTQVTVSS | low polyreactivity
QVQLVESGGGLVQAGGSLRLSCAASGRIFNTYAMGWYRQAPGKERELVARITWSAGRTYYADSVKGRFTISRDNAKNTVYLQMNSLKPEDTAVYYCAAEGFYRSSPVRTYIGYDYWGQGTQVTVSS | high polyreactivity
QVQLVESGGGLVQAGGSLRLSCAASGIIFGFNAMGWYRQAPGKERELVAAINGDDSTYYADSVKGRFTISRDTAKNTVYFQMNSLKPEDTAVYYSAARYYRYLTFTGELLVYYWGQGTQVTVSS | low polyreactivity
